Laboratory results as given in US20090068103, “APTAMERS LABELED WITH 68GA” (published 2009).

B1: TTA3 (ssRNA)
RNA: GGGAGGACGCGUCGCCGUAAUGGAUGUUUUGCUCCCUG
modifications: 5'-NH2-C6; mGmGmG mAmGG mAfCmG-(CH2CH2O)6-fCGfU fCGfC fCGfU mAmAfU mGmGmA fUmGfU fUfUfU mGfCfU fCfCfC UG (m=2'-OMe, f=2'-F); 3'-3'-T cap
B2: TTA6 (ssRNA)
RNA: GGGAGGACGCGUCGCCGUAAUGGAUGUUUUGCUCCCUG
modifications: 5'-NH2-C6-O-SPO-O (PS linkage); mGmGmG mAmGG mAfCmG-(CH2CH2O)6-fCGfU fCGfC fCGfU mAmAfU mGmGmA fUmGfU fUfUfU mGfCfU fCfCfC fUmG (m=2'-OMe, f=2'-F); 3'-3'-T cap
B3: TTA5 (ssRNA)
RNA: TAGGGAGGACGCGUCGCCGUAAUGGAUGUUUUGCUCCCUG
modifications: 5'-(aminomodifier C2 dT)-mA mGmGmG mAmGG mAfCmG-(CH2CH2O)6-fCGfU fCGfC fCGfU mAmAfU mGmGmA fUmGfU fUfUfU mGfCfU fCfCfC fUmG (m=2'-OMe, f=2'-F); 3'-3'-T cap
B4: TTA4 (ssRNA)
RNA: GGGAGGACGCGUCGCCGUAAUGGAUGUUUUGCUCCC
modifications: mGmGmG mAmGG mAfCmG-(CH2CH2O)6-fCGfU fCGfC fCGfU mAmAfU mGmGmA fUmGfU fUfUfU mGfCfU fC(C6-NH2)CfC (m=2'-OMe, f=2'-F); 3'-3'-T cap
B5: TTA7 (ssRNA)
RNA: GGGAGGACGCGUCGCCGUAAUGGAUGUUUUGCUCCC
modifications: LGLGLG LALGmG mAfCrG-(CH2OCH2)6-fCGfU fCGfC fCGfU mAmAfU mGmGmA fUmGfU fUfUfU mGLCLU LCLCLC-(CH2)6NH2-3' (m=2'-OMe, f=2'-F, L prefix as printed, LNA inferred, r=ribo)
B6: TTA8 (ssRNA)
RNA: GGGAGGACGCGUCGCCGUAAUGGAUGUUUUGCUCCC
modifications: mGmGmG mAmGmG mAfCrG-(CH2OCH2)6-fCGfU fCGfC fCGfU mAmAfU mGmGmA fUmGfU fUfUfU mGmCmU mCmCmC-(CH2)6NH2-3' (m=2'-OMe, f=2'-F, r=ribo)

Biological target: Tenascin-C (TN-C) (Homo sapiens, UniProt P24821 P24821:23-2201)
Sequence (P24821 23-2201, one chain of several): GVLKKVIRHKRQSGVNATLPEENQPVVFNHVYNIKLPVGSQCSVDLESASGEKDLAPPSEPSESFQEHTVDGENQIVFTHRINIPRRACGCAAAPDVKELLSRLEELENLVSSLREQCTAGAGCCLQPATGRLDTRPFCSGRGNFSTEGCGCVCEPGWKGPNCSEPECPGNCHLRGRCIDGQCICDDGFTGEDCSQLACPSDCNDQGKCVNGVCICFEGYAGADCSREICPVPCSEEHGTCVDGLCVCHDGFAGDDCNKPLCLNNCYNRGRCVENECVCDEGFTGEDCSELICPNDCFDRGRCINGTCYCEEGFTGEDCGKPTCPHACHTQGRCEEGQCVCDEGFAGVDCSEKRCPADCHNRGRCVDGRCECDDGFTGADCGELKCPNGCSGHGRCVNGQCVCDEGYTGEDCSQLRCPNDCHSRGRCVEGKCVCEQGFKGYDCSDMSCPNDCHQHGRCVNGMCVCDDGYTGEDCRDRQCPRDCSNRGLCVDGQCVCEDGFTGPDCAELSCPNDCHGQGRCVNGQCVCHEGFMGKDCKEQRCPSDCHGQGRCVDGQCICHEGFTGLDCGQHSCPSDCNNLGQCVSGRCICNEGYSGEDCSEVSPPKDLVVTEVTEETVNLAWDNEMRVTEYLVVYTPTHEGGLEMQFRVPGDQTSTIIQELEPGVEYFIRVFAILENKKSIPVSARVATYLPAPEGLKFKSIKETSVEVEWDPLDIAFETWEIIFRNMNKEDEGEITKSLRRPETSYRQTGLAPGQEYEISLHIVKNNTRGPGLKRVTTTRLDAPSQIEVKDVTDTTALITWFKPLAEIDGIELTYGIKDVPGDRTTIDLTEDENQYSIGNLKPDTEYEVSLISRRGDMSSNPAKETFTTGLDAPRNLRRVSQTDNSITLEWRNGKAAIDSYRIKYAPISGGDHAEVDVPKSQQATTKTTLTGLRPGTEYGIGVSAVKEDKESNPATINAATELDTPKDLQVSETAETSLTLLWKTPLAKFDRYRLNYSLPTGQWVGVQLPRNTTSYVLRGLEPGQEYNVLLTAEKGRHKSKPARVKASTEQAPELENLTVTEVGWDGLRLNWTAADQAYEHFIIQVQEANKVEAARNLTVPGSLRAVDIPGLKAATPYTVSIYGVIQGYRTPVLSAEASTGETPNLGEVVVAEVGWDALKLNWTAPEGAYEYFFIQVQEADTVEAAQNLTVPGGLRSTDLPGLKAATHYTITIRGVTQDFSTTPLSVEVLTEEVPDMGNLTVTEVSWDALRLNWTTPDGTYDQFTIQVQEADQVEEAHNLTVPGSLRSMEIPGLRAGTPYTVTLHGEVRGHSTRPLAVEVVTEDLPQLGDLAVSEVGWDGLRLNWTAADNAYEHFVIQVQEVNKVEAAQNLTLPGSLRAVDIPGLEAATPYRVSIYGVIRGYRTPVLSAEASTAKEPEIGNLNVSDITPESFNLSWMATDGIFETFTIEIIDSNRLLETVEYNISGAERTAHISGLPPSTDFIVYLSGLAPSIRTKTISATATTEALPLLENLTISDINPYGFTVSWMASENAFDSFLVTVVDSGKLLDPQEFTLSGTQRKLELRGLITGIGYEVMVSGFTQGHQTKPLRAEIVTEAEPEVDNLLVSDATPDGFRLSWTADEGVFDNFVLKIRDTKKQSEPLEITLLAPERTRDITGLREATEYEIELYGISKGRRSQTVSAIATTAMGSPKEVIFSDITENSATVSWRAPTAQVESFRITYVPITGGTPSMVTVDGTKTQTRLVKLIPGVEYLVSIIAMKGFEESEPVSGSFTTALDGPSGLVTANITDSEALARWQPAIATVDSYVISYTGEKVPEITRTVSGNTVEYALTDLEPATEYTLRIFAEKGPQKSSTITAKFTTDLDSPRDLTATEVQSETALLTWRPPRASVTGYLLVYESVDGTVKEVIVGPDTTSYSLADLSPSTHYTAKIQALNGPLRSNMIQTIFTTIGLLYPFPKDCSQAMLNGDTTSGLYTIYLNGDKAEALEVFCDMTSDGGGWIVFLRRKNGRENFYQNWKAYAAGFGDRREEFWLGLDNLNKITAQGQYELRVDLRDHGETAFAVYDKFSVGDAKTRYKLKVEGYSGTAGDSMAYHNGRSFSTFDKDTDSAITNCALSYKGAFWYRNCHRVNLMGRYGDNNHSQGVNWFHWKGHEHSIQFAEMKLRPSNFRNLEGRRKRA
Experiment: competition; filter competition vs 1 nM 99mTc-TTA1-MAG2, 2 nM TN-C; TBSMC pH 7.4, 1 mM CaCl2, 1 mM MgCl2, 37 C
Settings: tags: none stated; chain copies: 6
Description: A competition filter binding assay was carried out in order to determine binding constants (EC₅₀). Samples of 2 nM human TN-C were incubated with 1 nM ^99mTc-TTA1-MAG₂ in TBSMC buffer (20 mM Tris, pH 7.4; 137 mM NaCl; 1 mM CaCl₂; 1 mM MgCl₂) and the binding competed with varying concentrations of unlabeled aptamer (see pipetting scheme in FIG. 9.1). Incubation was carried out at 37° C. for 15 min. Subsequently, the solutions were pipetted on a Minifold Device equipped with a supported nitrocellulose membrane and Whatman filter paper and were washed with buffer using vacuum. Residual radioactivity on the filter due to tenascin-C bound labeled aptamer was quantified using a Phosphorimager. EC₅₀ values were calculated using GraphPadPrism 3.02 (San Diego, Calif., USA) plotting one-side competition non-linear regression curves.

In order of rising EC50:
1. B5  2 nM
2. B2  14 nM
3. B6  14 nM
4. B1  19 nM
5. B4  20 nM
6. B3  39 nM
